Measurements as given in US20230050440A1 (Seagen, published 2023).
Read-outs that look alike come from different tables or passages of the source.

B1: anti-TIGIT clone 13 mIgG1 (antibody)
heavy: QVQLVQSGAEVKKPGSSVKVSCKASGGTFSSYAISWVRQAPGQGLEWMGSIIPIFGTANYAQKFQGRVTITADESTSTAYMELSSLRSEDTAVYYCARGPSEVGAILGYVWFDPWGQGTLVTVSSAKTTPPSVYPLAPGSAAQTNSMVTLGCLVKGYFPEPVTVTWNSGSLSSGVHTFPAVLESDLYTLSSSVTVPSSPRPSETVTCNVAHPASSTKVDKKIVPRDCGCKPCICTVPEVSSVFIFPPKPKDVLTITLTPKVTCVVVDISKDDPEVQFSWFVDDVEVHTAQTQPREEQFNSTFRSVSELPIMHQDWLNGKEFKCRVNSAAFPAPIEKTISKTKGRPKAPQVYTIPPPKEQMAKDKVSLTCMITDFFPEDITVEWQWNGQPAENYKNTQPIMNTNGSYFVYSKLNVQKSNWEAGNTFTCSVLHEGLHNHHTEKSLSHSPGK
light: not shown
notes: also called c13 mIgG1; 13-1
B2: anti-TIGIT c13 mIgG2a LALA-PG (antibody)
heavy chain: QVQLVQSGAEVKKPGSSVKVSCKASGGTFSSYAISWVRQAPGQGLEWMGSIIPIFGTANYAQKFQGRVTITADESTSTAYMELSSLRSEDTAVYYCARGPSEVGAILGYVWFDPWGQGTLVTVSSAKTTAPSVYPLAPVCGDTTGSSVTLGCLVKGYFPEPVTLTWNSGSLSSGVHTFPAVLQSDLYTLSSSVTVTSSTWPSQSITCNVAHPASSTKVDKKIEPRGPTIKPCPPCKCPAPNAAGGPSVFIFPPKIKDVLMISLSPIVTCVVVDVSEDDPDVQISWFVNNVEVHTAQTQTHREDYNSTLRVVSALPIQHQDWMSGKEFKCKVNNKDLGAPIERTISKPKGSVRAPQVYVLPPPEEEMTKKQVTLTCMVTDFMPEDIYVEWTNNGKTELNYKNTEPVLDSDGSYFMYSKLRVEKKNWVERNSYSCSVVHEGLHNHHTTKSFSRTPGK
light chain: not shown
notes: also called LALA TIGIT
B3: Clone 13 (antibody, IgG1, V domains shown)
VH: QVQLVQSGAEVKKPGSSVKVSCKASGGTFSSYAISWVRQAPGQGLEWMGSIIPIFGTANYAQKFQGRVTITADESTSTAYMELSSLRSEDTAVYYCARGPSEVGAILGYVWFDPWGQGTLVTVSS
VL: not shown
notes: also called anti-TIGIT clone 13; c13 hIgG1

What was measured:
[1] = biological target: T1, human TIGIT expressed on cells (human, UniProt Q495A1 22-244); test: flow cytometry competition with human CD155-Fc on 293-hTIGIT cells
T1 construct: HEK 293 cells stably expressing human TIGIT, primary human T cells or Jurkat effector cells; the cell is named under assay; also called Human TIGIT HEK
T1 sequence: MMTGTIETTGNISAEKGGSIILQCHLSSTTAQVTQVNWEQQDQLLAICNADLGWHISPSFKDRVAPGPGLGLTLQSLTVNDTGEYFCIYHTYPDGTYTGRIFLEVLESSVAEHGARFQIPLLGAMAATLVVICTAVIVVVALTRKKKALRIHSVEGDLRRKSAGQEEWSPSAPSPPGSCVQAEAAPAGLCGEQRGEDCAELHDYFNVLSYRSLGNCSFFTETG

[2] = biological target: T2, cynomolgus monkey TIGIT expressed on cells (cynomolgus monkey); test: flow cytometry titration, HEK 293 cells expressing cynomolgus TIGIT
T2 construct: HEK 293 cells stably expressing cynomolgus monkey TIGIT or cynomolgus T cells; also called Cyno TIGIT HEK
T2 sequence (chain, as listed by the source limits assumed): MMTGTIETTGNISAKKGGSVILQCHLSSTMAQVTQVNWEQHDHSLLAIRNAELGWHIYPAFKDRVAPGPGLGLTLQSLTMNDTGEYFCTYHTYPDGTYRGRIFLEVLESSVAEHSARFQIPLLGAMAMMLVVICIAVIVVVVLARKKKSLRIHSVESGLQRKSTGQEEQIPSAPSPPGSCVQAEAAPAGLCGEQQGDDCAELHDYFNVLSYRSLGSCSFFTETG

[3] = biological target: T1, human TIGIT expressed on cells; test: flow cytometry titration, HEK 293 cells expressing human TIGIT
[4] = biological target: T1, human TIGIT expressed on cells; test: flow cytometry competition with human CD112-Fc on 293-hTIGIT cells
[5] = biological target: T3, murine FcγRIV expressed on CHO cells (mouse, UniProt A0A0B4J1G0 21-249); test: flow cytometry on CHO cells expressing mCD16 (murine FcγRIV), anti-mouse IgG FITC
T3 construct: also called mCD16 (the murine form of FcγRIVa)
T3 sequence: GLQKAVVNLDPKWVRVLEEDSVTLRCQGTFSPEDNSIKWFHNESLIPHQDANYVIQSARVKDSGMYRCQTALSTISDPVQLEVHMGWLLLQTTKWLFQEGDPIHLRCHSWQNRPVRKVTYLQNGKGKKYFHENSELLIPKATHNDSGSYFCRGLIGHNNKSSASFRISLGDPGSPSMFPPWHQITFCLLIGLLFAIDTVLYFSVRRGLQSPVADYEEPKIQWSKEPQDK

[6] = biological target: T2, cynomolgus monkey TIGIT expressed on …; test: flow cytometry on HEK 293 cells expressing the target, MFI over parental HEK 293;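 also: bound antibody detected with PE-labelled anti-human IgG, 15 min on ice. FOB equals median fluorescence on TIGIT-positive cells divided by that on target-negative cells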
[7] = biological target: T1, human TIGIT expressed on cells; test: as above
[8] = biological target: T1, human TIGIT expressed on cells; test: flow cytometry competition with hCD112-Fc-AlexaFluor647 on 293-hTIGIT cells; the axis 'Percent Blockade' falls as ligand signal is lost
[9] = biological target: T4, monomeric human TIGIT (Sino Biological 10917-H08H) (human, UniProt Q495A1 22-138, biotinylated in the MSD-SET assay); test: BLI (ForteBio), IgG on sensor, monovalent
T4 construct: Bought protein; also called Human TIGIT monomer; Human TIGIT-His; not shown: His tag
T4 sequence: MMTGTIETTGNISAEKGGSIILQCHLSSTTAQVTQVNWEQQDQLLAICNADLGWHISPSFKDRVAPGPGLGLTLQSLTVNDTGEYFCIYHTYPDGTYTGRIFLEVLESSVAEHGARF

[10] = biological target: T2, cynomolgus monkey TIGIT expressed on …; test: flow cytometry titration, HEK 293 cells expressing cynomolgus TIGIT; remark: listed apart in the source
[11] = biological target: T5, cyno TIGIT-Fc (cynomolgus monkey); test: BLI (ForteBio), IgG on sensor, avid
T5 construct: not shown: Fc part
T5 sequence (chain, as listed by the source limits assumed): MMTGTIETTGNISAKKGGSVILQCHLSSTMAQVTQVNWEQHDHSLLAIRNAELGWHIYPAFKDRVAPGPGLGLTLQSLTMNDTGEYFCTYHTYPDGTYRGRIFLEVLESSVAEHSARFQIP

[12] = biological target: T1, human TIGIT expressed on cells; test: flow cytometry titration, HEK 293 cells expressing human TIGIT; remark: listed apart in the source
[13] = biological target: T4, monomeric human TIGIT (Sino Biological …); test: BLI (ForteBio Octet RED384), IgG on AHQ sensor, 100 nM antigen, 1:1 model
[14] = biological target: T6, recombinant dimeric human TIGIT-Fc (Acro Biosystems TIT-H5254) (human, UniProt Q495A1 22-141); test: as above
T6 construct: Bought protein; also called hTIGIT-Fc; not shown: Fc part of the bought fusion protein
T6 sequence: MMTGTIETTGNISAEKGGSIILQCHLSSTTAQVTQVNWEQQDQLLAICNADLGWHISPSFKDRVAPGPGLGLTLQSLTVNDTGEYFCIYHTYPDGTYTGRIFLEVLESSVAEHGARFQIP

[15] = biological target: T1, human TIGIT expressed on cells; test: flow cytometry competition with hCD155-Fc-AlexaFluor647 on 293-hTIGIT cells; the axis 'Percent Blockade' falls as ligand signal is lost

Row | Binder | IC50 (read off the curve) [1] [µg/mL] | EC50 [2] [µg/mL] | EC50 [3] [µg/mL] | IC50 (read off the curve) [4] [µg/mL] | Kd [5] [nM] | FOB (Fold Over Background) [6] [fold] | FOB (Fold Over Background) [7] [fold] | IC50 (read off the curve) [8] [µg/mL] | Kd [9] [nM] | EC50 [10] [µg/mL] | Kd [11] [nM] | EC50 [12] [µg/mL] | Kd [13] [nM] | Kd [14] [nM] | IC50 (read off the curve) [15] [µg/mL]
1 | B1 | ~0.1 | 0.07 | 0.05 | ~0.04 |  |  |  |  |  |  |  |  |  |  | 
2 | B2 |  |  |  |  | 3330 |  |  |  |  |  |  |  |  |  | 
3 | B3 | ~0.1 | 0.13 | 0.09 | ~0.1 |  | 224 | 212 | ~0.1 | 2.63 | 0.1 | 1.04 | 0.07 | 2.56 | 0.543 | ~0.1
